The values that follow come from patent US20120276193A1 (CYTOGUIDE A S, published 2012).

For test [1], the target named is human CD163 on cells (human) (UniProt Q86VB7). The test can be described thus: flow cytometry, R-PE mAb, fresh EDTA whole blood. For orientation: In flow cytometry, cells or beads pass a laser one at a time.
For test [2], the target named is purified recombinant CD163 immobilized on a Biacore chip (human) (UniProt Q86VB7). The test can be described thus: SPR, immobilized recombinant CD163, 10 mM EDTA buffer. On the technique in general: In SPR one partner is held on a chip, and binding of the other changes the refractive index at the surface.
purified recombinant CD163 immobilized on a Biacore chip (human), sequence (Q86VB7 42-1050 limits assumed): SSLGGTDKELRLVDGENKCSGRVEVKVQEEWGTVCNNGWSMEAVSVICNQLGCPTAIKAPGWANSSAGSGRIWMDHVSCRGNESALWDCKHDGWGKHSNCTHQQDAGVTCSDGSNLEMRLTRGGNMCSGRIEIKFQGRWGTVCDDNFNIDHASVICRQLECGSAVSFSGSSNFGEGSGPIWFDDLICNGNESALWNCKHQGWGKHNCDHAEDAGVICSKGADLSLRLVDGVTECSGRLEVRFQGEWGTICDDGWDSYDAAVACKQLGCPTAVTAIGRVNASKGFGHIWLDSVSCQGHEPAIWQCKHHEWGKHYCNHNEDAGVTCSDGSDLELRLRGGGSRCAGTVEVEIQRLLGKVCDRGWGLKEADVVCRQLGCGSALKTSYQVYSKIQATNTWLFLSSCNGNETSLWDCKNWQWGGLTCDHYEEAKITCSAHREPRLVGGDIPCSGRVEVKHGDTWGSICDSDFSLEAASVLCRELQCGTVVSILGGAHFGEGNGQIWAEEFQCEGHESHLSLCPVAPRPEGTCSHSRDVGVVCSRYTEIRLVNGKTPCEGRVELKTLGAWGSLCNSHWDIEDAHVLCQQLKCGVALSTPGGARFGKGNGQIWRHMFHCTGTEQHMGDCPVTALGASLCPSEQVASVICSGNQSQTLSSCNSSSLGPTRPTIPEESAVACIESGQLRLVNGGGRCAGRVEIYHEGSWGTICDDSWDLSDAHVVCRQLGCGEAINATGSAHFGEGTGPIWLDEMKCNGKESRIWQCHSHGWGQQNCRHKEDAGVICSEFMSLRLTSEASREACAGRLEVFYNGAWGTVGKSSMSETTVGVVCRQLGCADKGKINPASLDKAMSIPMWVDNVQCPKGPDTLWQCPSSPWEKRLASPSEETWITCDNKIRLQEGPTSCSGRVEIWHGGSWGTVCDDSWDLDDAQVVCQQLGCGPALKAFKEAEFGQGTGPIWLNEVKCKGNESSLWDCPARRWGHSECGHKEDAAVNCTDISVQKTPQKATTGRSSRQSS
Test [3] concerns the target human CD163 on cells (human) (UniProt Q86VB7). Briefly: flow cytometry, fresh whole blood, citrate as anticoagulant.
The target is the same in test [4]. Briefly: flow cytometry, fresh whole blood, heparin as anticoagulant.
Test [5] shares this target. The test can be described thus: flow cytometry, PE mAb, CD163+ peripheral blood dendritic cells.
The target is the same in test [6]. Briefly: flow cytometry, PBMC isolated by density gradient centrifugation.
For test [7] the target is unchanged. Briefly: flow cytometry, PE mAb, CD14-ILT3+ dendritic cells in whole blood.
For test [8] the target is unchanged. The test can be described thus: flow cytometry, CD14+ILT3+HLA-DR+ monocytes; clone GHI/61 by paragraph 356.
Test [9] has the same target. The test can be described thus: quantitative flow cytometry, fresh whole blood, citrate as anticoagulant.
Test [10] has the same target. Briefly: quantitative flow cytometry, fresh whole blood, heparin as anticoagulant.
Test [11] has the same target. The test can be described thus: quantitative flow cytometry (Quantibrite PE beads), fresh EDTA whole blood.
Test [12] shares this target. Briefly: quantitative flow cytometry, PBMC isolated by density gradient centrifugation.
Test [13] has the same target. The test can be described thus: flow cytometry, CD163low subset of peripheral blood dendritic cells; clone GHI/61 by paragraph 356.
Test [14] shares this target. The test can be described thus: flow cytometry, CD163high subset of peripheral blood dendritic cells; clone GHI/61 by paragraph 356.
The target is the same in test [15]. The test can be described thus: 125I-labelled mAb on stable CD163 transfected Flp-In CHO cells (non-transfected cells: 1.23%).
Test [16] shares this target. The test can be described thus: flow cytometry, fresh whole blood, EDTA as anticoagulant.
Test [17] shares this target. The test can be described thus: flow cytometry, mononuclear cells from buffy coat, Mac2-158-FITC with KN2/NRY-Alexa Fluor647.
The target is the same in test [18]. Briefly: 125I-labelled mAb on stable CD163 transfected Flp-In CHO cells (non-transfected cells: 1.37%).
For test [19] the target is unchanged. The test can be described thus: flow cytometry, human mononuclear cells from buffy coats stained with Mac2-158-FITC, anti-CD14-PE and KN2/NRY-Alexa Fluor647.
Test [20] has the same target. The test can be described thus: quantitative flow cytometry (Quantibrite PE beads), fresh EDTA whole blood, isotype control.
For test [21] the target is unchanged. Briefly: flow cytometry, peripheral blood dendritic cells, negative staining control.
For test [22], the target named is purified recombinant CD163 immobilized on a Biacore chip (human) (UniProt Q86VB7). The test can be described thus: SPR, immobilized recombinant CD163, 2 mM free Ca2+.
In test [23] the target is human CD163 on cells (human) (UniProt Q86VB7). The test can be described thus: quantitative flow cytometry, fresh whole blood, EDTA as anticoagulant.
The target is the same in test [24]. Briefly: 125I-labelled mAb on stable CD163 transfected Flp-In CHO cells (non-transfected cells: 1.47%).
In test [25] the target is rat CD163 on cells (rat) (UniProt D3Z9U2). The test can be described thus: flow cytometry, rat peritoneal macrophages, ED2-FITC.
Test [26] has the same target. The test can be described thus: flow cytometry, rat peritoneal macrophages stained with anti-rat CD172a-PE (ED9) and anti-rat CD163-FITC (ED2).
Test [27] has the same target. Briefly: flow cytometry, rat peritoneal macrophages, negative control staining with IgG-FITC.
For test [28], the target named is T1, murine CD163 in solubilized murine spleen (mouse, UniProt Q2VLH6 39-1121, limits assumed).
T1 construct: also called non-reduced CD163
T1 sequence (Q2VLH6 39-1121 limits assumed): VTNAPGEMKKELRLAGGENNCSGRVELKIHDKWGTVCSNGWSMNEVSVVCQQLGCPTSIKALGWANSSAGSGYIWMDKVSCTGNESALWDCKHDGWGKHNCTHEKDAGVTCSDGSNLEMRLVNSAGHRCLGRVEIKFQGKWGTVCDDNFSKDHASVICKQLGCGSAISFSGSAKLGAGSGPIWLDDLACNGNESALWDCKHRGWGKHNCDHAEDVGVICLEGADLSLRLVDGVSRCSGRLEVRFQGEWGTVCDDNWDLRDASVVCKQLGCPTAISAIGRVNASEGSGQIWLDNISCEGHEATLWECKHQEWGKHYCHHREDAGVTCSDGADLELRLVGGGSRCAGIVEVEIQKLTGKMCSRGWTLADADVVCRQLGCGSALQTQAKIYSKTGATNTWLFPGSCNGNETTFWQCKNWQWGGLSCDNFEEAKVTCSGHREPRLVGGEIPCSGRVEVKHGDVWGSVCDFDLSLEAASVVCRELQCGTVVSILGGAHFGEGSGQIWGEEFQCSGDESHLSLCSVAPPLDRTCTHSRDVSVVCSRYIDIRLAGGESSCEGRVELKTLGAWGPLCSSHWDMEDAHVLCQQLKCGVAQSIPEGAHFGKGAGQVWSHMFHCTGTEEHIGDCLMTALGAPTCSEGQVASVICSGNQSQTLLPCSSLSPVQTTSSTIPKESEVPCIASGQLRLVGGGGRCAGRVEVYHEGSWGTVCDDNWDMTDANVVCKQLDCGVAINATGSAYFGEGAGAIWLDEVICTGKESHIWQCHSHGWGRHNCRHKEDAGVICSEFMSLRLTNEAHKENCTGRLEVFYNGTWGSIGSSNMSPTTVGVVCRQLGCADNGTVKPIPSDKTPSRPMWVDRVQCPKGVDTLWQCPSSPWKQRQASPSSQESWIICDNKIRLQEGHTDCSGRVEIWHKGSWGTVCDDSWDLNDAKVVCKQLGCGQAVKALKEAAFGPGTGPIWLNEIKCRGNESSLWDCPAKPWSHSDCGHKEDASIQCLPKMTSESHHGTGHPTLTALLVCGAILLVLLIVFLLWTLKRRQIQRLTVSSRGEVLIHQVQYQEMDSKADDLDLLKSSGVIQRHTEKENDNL
Briefly: western blot of solubilized murine spleen with hybridoma supernatants. An excerpt: The clones were screened by testing binding of supernatants to murine CD163 in solubilized murine spleen loaded on a SDS-PAGE and western blotted, using standard techniques.
In general terms: Immunoblotting shows a protein as a band on a membrane.

Regarding GHI/61 (antibody), the fraction of CD14+ monocytes stained positive for CD163 was found to be 63% in test [1], 64.4% in test [3], 0.82% in test [4] and 1.26% in test [6]. Further, in [2], the Kd (as a rule, the free concentration of one partner at which half of the binding sites on the other are occupied at equilibrium, for simple one-to-one binding) worked out at 29 nM. For the same molecule, the results for the MFI in [5], in test [13] and in [14] were 22.3 MFI, 4.2 MFI and 34.6 MFI, respectively. In test [7], this molecule came in with a fraction of peripheral blood dendritic cells recognized of 10.5%. The percent of cells stained positive in test [8] is 88%. Also, the density of CD163 receptors per monocyte (PE antibodies bound per cell) was determined as 1150 per monocyte in test [9], 58.3 per monocyte in test [10], 1030 per monocyte in test [11] and 108 per monocyte in test [12]. Besides, the percentage of cell-associated radioactivity in test [15] was found to be 1.23%.

In the case of Mac2-158 (antibody), the fraction of CD14+ monocytes stained positive for CD163 was 84.1% in test [1]; 87.2% in test [16]; 84% in [3]; 84.4% in test [4]; 81.1% in test [6]. In [5], this molecule displayed an MFI of 108 MFI. This molecule registered a fraction of peripheral blood dendritic cells recognized in test [7] of 32.3%. For the same molecule, the density of CD163 receptors per monocyte (PE antibodies bound per cell) was found to be 17700 per monocyte in [9], 18900 per monocyte in test [10], 17700 per monocyte in [11] and 11400 per monocyte in [12]. In test [17], this molecule displayed a percent of peripheral monocytes showing co-binding of KN2/NRY and Mac2-158 of 70%. Moreover, in [18], the percentage of cell-associated radioactivity came out at 61.3%. Moreover, in test [19], the share of cells in the lower right quadrant (Mac2-158-FITC positive, CD14-PE negative) came to 1.22%. In test [19], the share of cells in the lower right quadrant (Mac2-158-FITC positive, KN2/NRY-Alexa Fluor 647 negative) was 4.45%. Moreover, in test [19], the share of cells in the upper right quadrant (Mac2-158-FITC positive, CD14-PE positive) came to 73.9%. The share of cells in the upper right quadrant (positive for both Mac2-158-FITC and KN2/NRY-Alexa Fluor 647) in [19] is 70.7%.

With “R-PE-conjugated Mouse IgG1, k isotype control (MCG1) (antibody)”, in test [20], the background staining (PE antibodies bound per cell) was 94 per monocyte.

With “Mouse IgG, PE, k isotype control, MOPC-21 (antibody)”, the MFI in test [21] was 1.23 MFI.

For RM3/1 (antibody), the fraction of CD14+ monocytes stained positive for CD163 stood at 0.33% in test [1], 12.5% in test [3], 3.33% in test [4] and 2.5% in test [6]. Further, the Kd in test [22] came to 0.6 nM. The density of CD163 receptors per monocyte (PE antibodies bound per cell) came out at 86 per monocyte in test [23]; 207 per monocyte in [9]; 210 per monocyte in test [10]; 101 per monocyte in [11]; 132 per monocyte in [12]. The percentage of cell-associated radioactivity in test [24] is 7.77%.

Molecule ED2 (antibody) yielded a percent of peritoneal macrophages CD163 positive with rat CD163 on cells (rat) [25] of 42%. For the same molecule, in the test with rat CD163 on cells (rat) [26], the share of cells in the lower right quadrant (CD163 FITC positive, CD172a PE negative) came to 0.01% and the share of cells in the upper right quadrant (CD163 FITC positive, CD172a PE positive) was found to be 42.9%.

In the test with rat CD163 on cells (rat) [27], IgG-FITC (antibody) had a share of cells in the lower right quadrant (IgG FITC positive) of 0.41% and a share of cells in the upper right quadrant of 0.06%.

B1: 3E10B10 (antibody, V domains shown)
VH: QVKLQESGGGLVQPKESLKISCAASGFTFSTAAMYWVRQAPGKGLDWVARIRTKPDNYATYYPASVKGRFTISRDDSKGMVYLQMDNLKTEDTAIYYCTAAYYYDGRFDYWGQGVMVTVAS
VL: DIVMTQTPSSQAVSAGERVTMRCKSSQSLLYSENKKNYLAWYQQKPGQSPKLLISWASTRESGVPDRFIGSGSGTDFTLTISSVQAEDLAVYYCDQYYDPPFTFGSGTKLEIK
notes: Rat IgG2a hybridoma antibody raised against mouse CD163 domain 1-3; also called rat anti-mouse E10B10 (IgG2a)
Consider B1, for which, in [28], the binding result is “binds”.
